Patent US20080260641A1 (Genmab, published 2008)
One block for each molecule: values may come before it.

Experiments:
human CD20 [1] = target: T1, human CD20 (human, UniProt P11836 1-297); experiment: flow cytometry blocking assay on CD20-NS/0 cells: pre-incubation with the control, then competitor rituximab-FITC 10 µg/ml
T1 construct: whole, on cells; also called WT CD20; wild-type (WT) CD20
T1 sequence (looked up): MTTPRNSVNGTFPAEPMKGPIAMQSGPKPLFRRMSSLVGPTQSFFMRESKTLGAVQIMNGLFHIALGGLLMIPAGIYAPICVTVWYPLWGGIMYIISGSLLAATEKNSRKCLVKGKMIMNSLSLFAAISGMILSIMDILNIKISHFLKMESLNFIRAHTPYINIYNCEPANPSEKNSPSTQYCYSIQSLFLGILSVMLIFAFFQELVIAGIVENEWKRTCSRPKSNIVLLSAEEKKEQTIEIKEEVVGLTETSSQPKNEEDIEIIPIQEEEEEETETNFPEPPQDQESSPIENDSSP

human CD20 [2] = target: T1, human CD20; experiment: flow cytometry on CD20-positive NS/0 cells, control antibody
human CD20 [3] = target: T1, human CD20; experiment: flow cytometry, FITC-conjugated antibodies on Daudi and Raji cells

- Blocking of rituximab (signal of rituximab-FITC left after pre-incubation) (human CD20 [1]): 179
- Binding CD20-NS/0 (mean fluorescence) (mean fluorescence) (human CD20 [2]): 14
Molecule: human IgG1 control antibody

- Blocking of rituximab (signal of rituximab-FITC left after pre-incubation) (human CD20 [1]): 182
- Binding CD20-NS/0 (mean fluorescence) (mean fluorescence) (human CD20 [2]): 9
Molecule: human IgM control antibody

- binding result (human CD20 [3]): binds
B1: 11B8 (antibody, V domains shown)
VH: EVQLVQSGGGLVHPGGSLRLSCTGSGFTFSYHAMHWVRQAPGKGLEWVSIIGTGGVTYYADSVKGRFTISRDNVKNSLYLQMNSLRAEDMAVYYCARDYYGAGSFYDGLYGMDVWGQGTTVTVSS
VL: EIVLTQSPATLSLSPGERATLSCRASQSVSSYLAWYQQKPGQAPRLLIYDASNRATGIPARFSGSGSGTDFTLTISSLEPEDFAVYYCQQRSDWPLTFGGGTKVEIK
notes: also called human recombinant monoclonal IgG1,κ anti-CD20 antibody 11B8
